Measurements taken from patent publication US20230242654A1 (published 2023).

Target: anti-CD19 CAR having an scFv derived from FMC63 (expressed on T cells) (Mus musculus (Mouse), UniProt P01644 1-106)
Assay: cell-based or functional assay

Sequence of anti-CD19 CAR having an scFv derived from FMC63 (expressed on T cells) (VH, as listed by the source, chain 1 of 2): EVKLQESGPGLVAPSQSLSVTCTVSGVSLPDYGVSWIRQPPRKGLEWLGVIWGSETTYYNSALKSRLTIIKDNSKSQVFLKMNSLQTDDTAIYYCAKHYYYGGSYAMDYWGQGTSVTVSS
Sequence of anti-CD19 CAR having an scFv derived from FMC63 (expressed on T cells) (P01644 other isoform, or with tags, fused parts or gaps, chain 2 of 2): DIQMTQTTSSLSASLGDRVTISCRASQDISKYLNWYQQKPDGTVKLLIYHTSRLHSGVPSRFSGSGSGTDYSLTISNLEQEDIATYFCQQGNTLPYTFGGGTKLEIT

B1: Anti-ID B-1 (FMC63-derived scFv-specific anti-idiotype antibody) (antibody, mouse IgG2a, kappa, V domains shown)
VH: EVQLQQSGPELVKPGASVKMSCKASGYTFTDYYMKWVKQCHGKSLEWIGDINPNNGGTDYNQNFKGKATLTVDKSSSTAYMQLNSLTSEDSAVYYCAREGNNYGSRDAMDYWGQGTSVTVSS
VL: QIVLTQSPALMSASPGEKVTMTCSASSGVIYMYWYQQKPRSSPKPWIYLTSNLASGVPARFSGSGSGTSYSLTISSMEAEDAATYYCQQWSSNPLTFGAGTKLELKR
Q: Which “fold expansion of CAR-expressing (EGFRt+) CD4+ T cells cultured alone with anti-ID B-1 conjugated beads, up to 9 days” value does the source give for B1 here?
A: > 60 fold
